Test [1] addresses T1, human TL1A extracellular domain with N-terminal HIS and FLAG tag (human, UniProt O95150 72-251).
T1 construct: the whole entry is named; also called TNFSF15
T1 sequence: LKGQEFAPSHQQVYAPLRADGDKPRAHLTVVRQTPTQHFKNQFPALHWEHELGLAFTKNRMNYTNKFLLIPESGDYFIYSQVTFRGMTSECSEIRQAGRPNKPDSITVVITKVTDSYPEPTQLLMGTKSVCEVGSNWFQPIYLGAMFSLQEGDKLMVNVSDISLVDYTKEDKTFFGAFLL
Briefly: SPR Run 7, antibody on Protein A, TL1A 5 ug/mL, timepoint 44. An excerpt: (§1) 1.5. Antibody expression and antigen binding as determined by SPR. Using a CM5 sensor chip (GE Healthcare) Protein A (Pierce) was coupled to the chip surface using an amine coupling kit (GE Healthcare). Protein A was coupled on flow cell 1 and 2 (or alternatively 3 and 4) using a BIACORE® T200. […] The amount of supernatant or purified protein (as well as the concentration) injected during the capture stage varied between runs and is specified in the header of the Tables 3-11. At the end of injection of the supernatant or purified antibody the change in response units was measured. This value was reported as Capture Level in Tables 3-11. […] The response units were measured prior to the end of the dissociation phase. […] The sensorgrams were double referenced (flow cell 2 is subtracted from flow cell 1 and a buffer blank). As there were a large number of antibody variants to screen, these were screened across different runs (Tables 3-11). […] A summary of the conditions used in each run is below:
(§2) 2.1. […] In some experiment the antibodies were purified using Protein A chromatography (See 1.4) and purified antibodies were used in BIACORE® (GE Healthcare) experiments.

The target in test [2] is T1, human TL1A extracellular domain with …. Briefly: SPR Run 7, antibody on Protein A, TL1A 5 ug/mL, timepoint 220.
Excerpt: as §1, §2

B1: 320-492 (antibody, human IgG1, name in Kabat numbering, V domains shown)
VH: QVQLVQSGAEVKKPGASVKVSCKASGYTFTSYDINWVRQAPGQGLEWMGWQNPNSGNTGYAQKFQGRVTMTADRSTSTAYMELSSLRSEDTAVYYCAREVPETAAFEYWGQGTLVTVSS
VL: QSVLTQPPSVSGAPGQRVTISCTSSSSDIGAGLGVHWYQQLPGTAPKLLIEGYYNRPSGVPDRFSGSKSGTSASLTITGLLPEDEGDYYCQSYDGTLSALFGGGTKLTVLG
notes: full-length human IgG1, lambda
B1: the “TL1A Binding Level (Early)” value in test [1] was 89 RU. The “TL1A Binding Level (Late)” value in test [2] was determined as 82 RU.

B2: 320-507 (antibody, human IgG1, name in Kabat numbering, V domains shown)
VH: QVQLVQSGAEVKKPGASVKVSCKASGYTFTSYDINWVRQAPGQGLEWMGWLNQNSGNTGYAQKFQGRVTMTADRSTSTAYMELSSLRSEDTAVYYCAREVPETAAFEYWGQGTLVTVSS
VL: QSVLTQPPSVSGAPGQRVTISCTSSSSDIGAGLGVHWYQQLPGTAPKLLIEGYYNRPSGVPDRFSGSKSGTSASLTITGLLPEDEGDYYCQSYDGTLSALFGGGTKLTVLG
notes: as for B1
Consider B2, for which the “TL1A Binding Level (Early)” value in test [1] came to 27 RU. Besides, in test [2], the “TL1A Binding Level (Late)” value worked out at 24 RU.

B3: 320-503 (antibody, human IgG1, name in Kabat numbering, V domains shown)
VH: QVQLVQSGAEVKKPGASVKVSCKASGYTFTSYDINWVRQAPGQGLEWMGWLWPNSGNTGYAQKFQGRVTMTADRSTSTAYMELSSLRSEDTAVYYCAREVPETAAFEYWGQGTLVTVSS
VL: QSVLTQPPSVSGAPGQRVTISCTSSSSDIGAGLGVHWYQQLPGTAPKLLIEGYYNRPSGVPDRFSGSKSGTSASLTITGLLPEDEGDYYCQSYDGTLSALFGGGTKLTVLG
notes: as for B1
On to B3, for which the “TL1A Binding Level (Early)” value in test [1] was found to be 41 RU. Further, in test [2], the “TL1A Binding Level (Late)” value stood at 6 RU.

B4: 320-496 (antibody, human IgG1, name in Kabat numbering, V domains shown)
VH: QVQLVQSGAEVKKPGASVKVSCKASGYTFTSYDINWVRQAPGQGLEWMGWWNPNSGNTGYAQKFQGRVTMTADRSTSTAYMELSSLRSEDTAVYYCAREVPETAAFEYWGQGTLVTVSS
VL: QSVLTQPPSVSGAPGQRVTISCTSSSSDIGAGLGVHWYQQLPGTAPKLLIEGYYNRPSGVPDRFSGSKSGTSASLTITGLLPEDEGDYYCQSYDGTLSALFGGGTKLTVLG
notes: as for B1
As to B4, in test [1], the “TL1A Binding Level (Early)” value was found to be 93 RU. Besides, the “TL1A Binding Level (Late)” value in test [2] worked out at 87 RU.

B5: 320-508 (antibody, human IgG1, name in Kabat numbering, V domains shown)
VH: QVQLVQSGAEVKKPGASVKVSCKASGYTFTSYDINWVRQAPGQGLEWMGWLNDNSGNTGYAQKFQGRVTMTADRSTSTAYMELSSLRSEDTAVYYCAREVPETAAFEYWGQGTLVTVSS
VL: QSVLTQPPSVSGAPGQRVTISCTSSSSDIGAGLGVHWYQQLPGTAPKLLIEGYYNRPSGVPDRFSGSKSGTSASLTITGLLPEDEGDYYCQSYDGTLSALFGGGTKLTVLG
notes: as for B1
For the molecule B5, the “TL1A Binding Level (Early)” value in test [1] was 19 RU. Moreover, the “TL1A Binding Level (Late)” value in test [2] stood at 12 RU.

B6: 320-506 (antibody, human IgG1, name in Kabat numbering, V domains shown)
VH: QVQLVQSGAEVKKPGASVKVSCKASGYTFTSYDINWVRQAPGQGLEWMGWLNSNSGNTGYAQKFQGRVTMTADRSTSTAYMELSSLRSEDTAVYYCAREVPETAAFEYWGQGTLVTVSS
VL: QSVLTQPPSVSGAPGQRVTISCTSSSSDIGAGLGVHWYQQLPGTAPKLLIEGYYNRPSGVPDRFSGSKSGTSASLTITGLLPEDEGDYYCQSYDGTLSALFGGGTKLTVLG
notes: as for B1
With B6, in test [1], the “TL1A Binding Level (Early)” value was determined as 97 RU. In addition, the “TL1A Binding Level (Late)” value in test [2] came out at 89 RU.

B7: 320-501 (antibody, human IgG1, name in Kabat numbering, V domains shown)
VH: QVQLVQSGAEVKKPGASVKVSCKASGYTFTSYDINWVRQAPGQGLEWMGWLHPNSGNTGYAQKFQGRVTMTADRSTSTAYMELSSLRSEDTAVYYCAREVPETAAFEYWGQGTLVTVSS
VL: QSVLTQPPSVSGAPGQRVTISCTSSSSDIGAGLGVHWYQQLPGTAPKLLIEGYYNRPSGVPDRFSGSKSGTSASLTITGLLPEDEGDYYCQSYDGTLSALFGGGTKLTVLG
notes: as for B1
With B7, in test [1], the “TL1A Binding Level (Early)” value stood at 118 RU. The “TL1A Binding Level (Late)” value in test [2] was 108 RU.

B8: 320-495 (antibody, human IgG1, name in Kabat numbering, V domains shown)
VH: QVQLVQSGAEVKKPGASVKVSCKASGYTFTSYDINWVRQAPGQGLEWMGWKNPNSGNTGYAQKFQGRVTMTADRSTSTAYMELSSLRSEDTAVYYCAREVPETAAFEYWGQGTLVTVSS
VL: QSVLTQPPSVSGAPGQRVTISCTSSSSDIGAGLGVHWYQQLPGTAPKLLIEGYYNRPSGVPDRFSGSKSGTSASLTITGLLPEDEGDYYCQSYDGTLSALFGGGTKLTVLG
notes: as for B1
With B8, in test [1], the “TL1A Binding Level (Early)” value is 84 RU. The “TL1A Binding Level (Late)” value in test [2] turned out to be 77 RU.

B9: 320-493 (antibody, human IgG1, name in Kabat numbering, V domains shown)
VH: QVQLVQSGAEVKKPGASVKVSCKASGYTFTSYDINWVRQAPGQGLEWMGWDNPNSGNTGYAQKFQGRVTMTADRSTSTAYMELSSLRSEDTAVYYCAREVPETAAFEYWGQGTLVTVSS
VL: QSVLTQPPSVSGAPGQRVTISCTSSSSDIGAGLGVHWYQQLPGTAPKLLIEGYYNRPSGVPDRFSGSKSGTSASLTITGLLPEDEGDYYCQSYDGTLSALFGGGTKLTVLG
notes: as for B1
Turning to B9, the “TL1A Binding Level (Early)” value in test [1] was 48 RU. Besides, the “TL1A Binding Level (Late)” value in test [2] is 46 RU.

B10: 320-499 (antibody, human IgG1, name in Kabat numbering, V domains shown)
VH: QVQLVQSGAEVKKPGASVKVSCKASGYTFTSYDINWVRQAPGQGLEWMGWLQPNSGNTGYAQKFQGRVTMTADRSTSTAYMELSSLRSEDTAVYYCAREVPETAAFEYWGQGTLVTVSS
VL: QSVLTQPPSVSGAPGQRVTISCTSSSSDIGAGLGVHWYQQLPGTAPKLLIEGYYNRPSGVPDRFSGSKSGTSASLTITGLLPEDEGDYYCQSYDGTLSALFGGGTKLTVLG
notes: as for B1
On to B10, for which, in test [1], the “TL1A Binding Level (Early)” value was determined as 122 RU. In addition, the “TL1A Binding Level (Late)” value in test [2] was 113 RU.

B11: 320-497 (antibody, human IgG1, name in Kabat numbering, V domains shown)
VH: QVQLVQSGAEVKKPGASVKVSCKASGYTFTSYDINWVRQAPGQGLEWMGWLAPNSGNTGYAQKFQGRVTMTADRSTSTAYMELSSLRSEDTAVYYCAREVPETAAFEYWGQGTLVTVSS
VL: QSVLTQPPSVSGAPGQRVTISCTSSSSDIGAGLGVHWYQQLPGTAPKLLIEGYYNRPSGVPDRFSGSKSGTSASLTITGLLPEDEGDYYCQSYDGTLSALFGGGTKLTVLG
notes: as for B1
Consider B11, for which the “TL1A Binding Level (Early)” value in test [1] is 135 RU. The “TL1A Binding Level (Late)” value in test [2] was determined as 125 RU.

B12: 320-500 (antibody, human IgG1, name in Kabat numbering, V domains shown)
VH: QVQLVQSGAEVKKPGASVKVSCKASGYTFTSYDINWVRQAPGQGLEWMGWLDPNSGNTGYAQKFQGRVTMTADRSTSTAYMELSSLRSEDTAVYYCAREVPETAAFEYWGQGTLVTVSS
VL: QSVLTQPPSVSGAPGQRVTISCTSSSSDIGAGLGVHWYQQLPGTAPKLLIEGYYNRPSGVPDRFSGSKSGTSASLTITGLLPEDEGDYYCQSYDGTLSALFGGGTKLTVLG
notes: as for B1
As for B12, the “TL1A Binding Level (Early)” value in test [1] was determined as 69 RU. Also, the “TL1A Binding Level (Late)” value in test [2] amounted to 53 RU.

B13: 320-494 (antibody, human IgG1, name in Kabat numbering, V domains shown)
VH: QVQLVQSGAEVKKPGASVKVSCKASGYTFTSYDINWVRQAPGQGLEWMGWHNPNSGNTGYAQKFQGRVTMTADRSTSTAYMELSSLRSEDTAVYYCAREVPETAAFEYWGQGTLVTVSS
VL: QSVLTQPPSVSGAPGQRVTISCTSSSSDIGAGLGVHWYQQLPGTAPKLLIEGYYNRPSGVPDRFSGSKSGTSASLTITGLLPEDEGDYYCQSYDGTLSALFGGGTKLTVLG
notes: as for B1
For B13, the “TL1A Binding Level (Early)” value in test [1] was determined as 150 RU. Also, the “TL1A Binding Level (Late)” value in test [2] is 138 RU.

B14: 320-504 (antibody, human IgG1, name in Kabat numbering, V domains shown)
VH: QVQLVQSGAEVKKPGASVKVSCKASGYTFTSYDINWVRQAPGQGLEWMGWLYPNSGNTGYAQKFQGRVTMTADRSTSTAYMELSSLRSEDTAVYYCAREVPETAAFEYWGQGTLVTVSS
VL: QSVLTQPPSVSGAPGQRVTISCTSSSSDIGAGLGVHWYQQLPGTAPKLLIEGYYNRPSGVPDRFSGSKSGTSASLTITGLLPEDEGDYYCQSYDGTLSALFGGGTKLTVLG
notes: as for B1
For the molecule B14, in test [1], the “TL1A Binding Level (Early)” value stood at 88 RU. Besides, in test [2], the “TL1A Binding Level (Late)” value was 65 RU.

B15: 320-498 (antibody, human IgG1, name in Kabat numbering, V domains shown)
VH: QVQLVQSGAEVKKPGASVKVSCKASGYTFTSYDINWVRQAPGQGLEWMGWLSPNSGNTGYAQKFQGRVTMTADRSTSTAYMELSSLRSEDTAVYYCAREVPETAAFEYWGQGTLVTVSS
VL: QSVLTQPPSVSGAPGQRVTISCTSSSSDIGAGLGVHWYQQLPGTAPKLLIEGYYNRPSGVPDRFSGSKSGTSASLTITGLLPEDEGDYYCQSYDGTLSALFGGGTKLTVLG
notes: as for B1
For B15, the “TL1A Binding Level (Early)” value in test [1] turned out to be 90 RU. For the same molecule, the “TL1A Binding Level (Late)” value in test [2] was 82 RU.

B16: 320-505 (antibody, human IgG1, name in Kabat numbering, V domains shown)
VH: QVQLVQSGAEVKKPGASVKVSCKASGYTFTSYDINWVRQAPGQGLEWMGWLNANSGNTGYAQKFQGRVTMTADRSTSTAYMELSSLRSEDTAVYYCAREVPETAAFEYWGQGTLVTVSS
VL: QSVLTQPPSVSGAPGQRVTISCTSSSSDIGAGLGVHWYQQLPGTAPKLLIEGYYNRPSGVPDRFSGSKSGTSASLTITGLLPEDEGDYYCQSYDGTLSALFGGGTKLTVLG
notes: as for B1
As for B16, in test [1], the “TL1A Binding Level (Early)” value is 118 RU. The “TL1A Binding Level (Late)” value in test [2] amounted to 110 RU.

B17: 320-502 (antibody, human IgG1, name in Kabat numbering, V domains shown)
VH: QVQLVQSGAEVKKPGASVKVSCKASGYTFTSYDINWVRQAPGQGLEWMGWLKPNSGNTGYAQKFQGRVTMTADRSTSTAYMELSSLRSEDTAVYYCAREVPETAAFEYWGQGTLVTVSS
VL: QSVLTQPPSVSGAPGQRVTISCTSSSSDIGAGLGVHWYQQLPGTAPKLLIEGYYNRPSGVPDRFSGSKSGTSASLTITGLLPEDEGDYYCQSYDGTLSALFGGGTKLTVLG
notes: as for B1
On to B17, for which, in test [1], the “TL1A Binding Level (Early)” value was 88 RU. In addition, in test [2], the “TL1A Binding Level (Late)” value stood at 59 RU.
